Test results published in a protein production outcome set (Wang et al. 2014).

Experiment: label from the status in PepcDB records

Row | Sequence | protein production
1 | MVQAWYMDESTADPRKPHRAQPDRPVSLEQLRTLGVLYWKLDADKYENDPELEKIRKMRNYSWMDIITICKDTLPNYEEKIKMFFEEHLHLDEEIRYILEGSGYFDVRDKEDKWIRISMEKGDMITLPAGIYHRFTLDEKNYVKAMRLFVGEPVWTPYNRPADHFDARVQYMSFLEGTA | not failed
2 | MLLAVEGGGLFSASASGYSKGLTLLFSGDKDVDRPMRVVPWNHYQVVDQEPEADPVLQLDSIKNRVSRGCAASFSCFGGASAGLETPSPLKVEPVQQQHREISSPESVVVVSEKGKDQISEADNGSSKEAFKLSLRSSLKRPSVAESRSLEDIKEYETLSVDGSDLTGDMARRKVQWPDACGSELTQVREFEPRYV | failed
3 | MVSLVMSGLTFWAVNTIQQDAQVNDTRFGRDLGLLLAANVAPLVADHNLTEVAQFSQRFYSSTSSVRYMLYADETGKIFFGIPFWEPEVENSLSIERRIQLPEEYPGDGEKPMVRQHMSPDGIVTDVFIPLIVDKKYLGVLAIGINPNQTAVISTNFTRDVTIAVFITIWVMVILAGVVNALTITKPIKELLVGVKQIAAGNFKQRIDLPLGGELGELILNFNEMAERLERYEEQNIEELTAEKAKLETLVSTIADGAVLIDNNMQVILVNPTARHIFGWEGADDVVGSNVLHHLPPAVQMEITRPLYEMAAGECDSAEFRLTLNQPSNRTIRILLTTVLNLQRESIKGIAITVQDITREVELNEAKSQFISNVSHELRTPLFNIKSFIETLHDYGEDLSLEERQEFLQTVNHETDRLTRLVNDVLDLSKLESGRSYSFDGVDLAQAIEQTLRTYQLNARDKGIELIQDVAPGLPLVLGNYDLLLQVLANLVGNALKFTSSGGKIAIRTYVLNTKSNSPNQPAQVRIEVSDTGIGIAQEDQQAIFDRFFRVENRVHTLEGTGLGLSIVRNIVERHRSRVNLVSEVGVGTTFWFDLILFEDEAPKKMVESGEEKAAMPTS | failed
4 | MGCLYSKGNVHFSIDDEIYDIKETRKQQQKEKEKEEEEKKLRPSSTPKVEHTWPSKLELSLQHLSQKTQNARKIQAWWRGTLVRRSLLRAALSAWIIQSWWRKILAKRQEKNRLIILHLMAQETRACVLIQSWVRMLKIRQNYCRLCYATRVIQASWRWYNCRTRGFFQGSYELVGNKLRLRLDIFLGSQVCRISDCISLPIKN | failed
5 | MEAFTFNTTELILLSATGVLLIIQLIYYLGLYNRIHTHNLAVGKDEVHFGRELPPLSVVICARNESENLRRNLPTILKQDYPDFEVIVINDGSTDESEDLLSALEEEYPNLYHSFTPDSARYISRKKLALTLGIKASKHDWLVFTEADCAPVSNQWLRRMARNFTSSTDIVLGYSGYERGKGWLHKRASFDSLFTSLRYLGFALAGKPYMGIGRNLAYRKELFFKVKGFSTHLNMQRGEDDLFINQVANENNTRVETSPDAVIRMQPVERYKDWKEEKVSYMATSRFYKGSQRWLLGLETGTRLLFYAACLVGIVFGILSFHWLVVGLSLLLWFVRYSVQAYVINKTAGEMGDNRSYYFTLPVFDIIRPLQTLKLKLYRLYRGKGDFMRR | failed
6 | MTATLQVTIVVGYLLVALAIGLLAYRVTERAAEDFYLASRTFGTAVLLFTVFATLLSAFTFFGGPDNAYAFGPEWILVMGLMDGLIFAILWYLIGYKQWLLGQRHGYVTLGEMFGDRFGSTGVRALVAVVSLFWLFPYVMLQQIGAGGALAALTDGVVPFWAGASLITGFMILYVVLAGMRGIAWTDTLQGAFMLCMVWAALVWVLVAVDGGVSTINAGLTESSPEFFALGSDFYTPGTMLTFAISIAFGVAMFPQVNQRFFTAASETVLKRSFALWPLLVLLLFVPAFLLGTWAQGLGLQADVGAGESILPILLDTYTPAWFAALVIAGAIAAMMSSSDSMLLSGSSYFTRDVYRPLVDDGITERQEDRLGRIGVAVFAIAALAASVWAEAEAFGAVAVGSVLVEIGDLAFGGFAQLTVPVLVALYWRGTTKQGLVAGILLPQAVYLAFNFLPATEVGSAMLFSETYLGWGISIYCLLLGLVATVVVSAATTKADSERPALFFESLRRG | failed
7 | MQVSREFKGIFLASISATFWGISGAVAQTLFDTTDINSIWLTGIRMLGAGIALLLVSLLTHVDLWSIWRQPRDLLQIVAYTLLGLMPVQFTYFLAVEASNAATGTILQFMGPVFIALWMLVAHRQLPTRAEGLAIICALLGSFLLVTHGNPQTLVISVWALIWGLLSGVSSATNTLLPTKLLTKYDPMTVNTWSMLLGGILFNIVQPVWSIHIPLTMLNISKLTFVVLFGTLLAFLFFLQSLQYIRPTVVSLLDAFEPLSATIIAVVLLGVSFGWLDILGSVLIISTVFILAIGQGPNDRTAENFKQP | failed
8 | MERRLGVRAWVKENRGSFQPPVCNKLMHQEQLKVMFIGGPNTRKDYHIEEGEEVFYQLEGDMVLRVLEQGKHRDVVIRQGEIFLLPARVPHSPQRFANTVGLVVERRRLETELDGLRYYVGDTMDVLFEKWFYCKDLGTQLAPIIQEFFSSEQYRTGKPIPDQLLKEPPFPLSTRSIMEPMSLDAWLDSHHRELQAGTPLSLFGDTYETQVIAYGQGSSEGLRQNVDVWLWQLEGSSVVTMGGRRLSLAPDDSLLVLAGTSYAWERTQGSVALSVTQDPACKKPLG | failed
9 | MTMMTATQALSVNPATGQTLAAMPWANAQEIEHALSLAASGFKKWKMTSVAQRAQTLRDIGQALRAHAEEMAQCITREMGKPIKQARAEVTKSAALCDWYAEHGPAMLNPEPTLVENQQAVIEYRPLGVILAIMPWNFPLWQVLRGAVPILLAGNSYLLKHAPNVTGCAQMIARILAEAGTPAGVYGWVNANNEGVSQMINDPRIAAVTVTGSVRAGAAIGAQAGAALKKCVLELGGSDPFIVLNDADLELAVKAAVAGRYQNTGQVCAAAKRFIVEEGIAQAFTDRFVAAAAALKMGDPLVEENDLGPMARFDLRDELHQQVQASVAEGARLLLGGEKIAGEGNYYAATVLADVTPDMTAFRQELFGPVAAITVAKDAAHALALANDSEFGLSATIFTADDTLAAEMAARLECGGVFINGYSASDARVAFGGVKKSGFGRELSHFGLHEFCNVQTVWKNRV | failed
10 | MDTSTNLDIGAQLIVEECPSTYSLTGMPDIKIEHPLDPNSEEGSAQGVAMGMKFILPNRFDMNVCSRFVKSLNEEDSKNIQDQVNSDLEVASVLFKAECNIHTSPSPGIQVRHVYTPSTTKHFSPIKQSTTLTNKHRGNEVSTTPLLANSLSVHQLAAQGEMLYLATRIEQENVINHTDEEGFTPLMWAAAHGQIAVVEFLLQNGADPQLLGKGRESALSLACSKGYTDIVKMLLDCGVDVNEYDWNGGTPLLYAVHGNHVKCVKMLLESGADPTIETDSGYNSMDLAVALGYRSVQQVIESHLLKLLQNIKE | failed
11 | MNERRKAELVLLGATFIWGSTFPVMKIGVEDFPPITFIALRFGIASFVLFLALRKHIRKDALFPGLILGFTLFLGHGFQIVGLKYTTPSNSAFITSLYVVFTPFIAFLFFRKGLKMFDAFSLSLAVIGLYLISNAELRLNYGDALTVVAALSFAFQIVLVEYFGNLGVGLAFWQIFWNFILSTVYAGIFEGISLPSDPKVLGGIIYTGIFATALSFTLQVKYQPKVESYKAAIIYSSEPIFAHLLALAFLNDRLPPKGYLGAFLILLAVWLELYQERKNY | failed
12 | MLTIREIQSLVHKGEPGQWSHTKALYFFIAPSGRPFWAIRYMLKGRRRQMSLTDSIPATVRELKQIELLSETEREKVRKGIDPLAEREAAKAASPEPVRQLVTFKSVALDYIAANRGGWKNAKHVQQWENTLATYVYPVIGHLEPQSITTAEVLKILQPLWATKRETASRVRSRVETIIGAAKAKGMSEKPEIWANHHNPARWADNLEFWLNGKQEKNHFSAMPYPEIPAFAQSIAEREDYSTKALQFLILTATRTNETLGAEWSEIDTEKAVWTIPASRMKSGKEHRVPLSSEALKLVASLLRIEGNPYLFPGAIRNKSLSNMALLMVMRGLKLGHYVPHGFRSAFRDWAAEETVYPNHIVEMALAHTIKNKVEAAYRRGDLMEKRRQLMEDWSAYLASAR | failed
13 | MNSHFLTNDLILEVLSRLPLKSVARFHCVSKRWASMFGSPYFKELFLTRSSAKPRLLFAIVQNGVWRFFSSPRLEKSSSTLVATAEFHMKLSPNNLRIYHDNTPRYFSIGYASGLIYLYGDRYEATPLICNPNTGRYTILPKCYTYRKAFSFFGFDPIDKQYKALSMIYPSGPGHSKILTFGDGDMNWKKIKYRVLHDIYSQGICINGVLYYLGDTSDWDNDHDVTSGNVLVCFDLRSESFTFIGLECGQLINYKGKLAVIFWDDVDDDDVKDDAIDEMHVWVLEDVEKKEWSKYAYTWTEDKLYRSQVSVVGMTASGEIVFSMRKYTSEQPFYVYYFNPERNNLRRVEIQGFEAFTKFGTVYTFVDHVEDLNVYNLKHFKSVHPPSVQPEYDESDSESEEDREIII | failed
14 | MLKRASFVEVDTASLRHNFSAVKSIVPKDACVMAVVKANAYGAGAIKASEIFLQEGANYLGVATLDEALELRSHFSKTPILILGYSPNANASMLVDNDLSAMIFSLEQAEVFSQMALKSQKRLKVHIKIDTGMHRLGLEPNFKSIETIKKIRALKGLEIEGIFTHLSNADAKIKTHAKNQMKAFNAFLEQLLDQKIEFQYRHAYNSAGILSLCNGNENRLLNLYRPGIMLYGFYPSNGMKESCPTILKNVISLKAQIVQIRSVKKGEFIGYGEHFYTNEETLVGVLALGYADGLMRALGNRIQVAINNQLAPLIGKVCMDQCFVKLNNIQAKEGDEVILFGDKSAKANDASEIXALLNTIAYETISTLSKRLERVYI | failed
15 | MDATMHLFREKSSIGRLNLARVGLLDCIFGVRLNVEYKKTVEIFDCAGHNHRSGGIRNHRPTNSQGNSHKIKWKNLLLAPYTLVHVLVPPDLNKTCCDCGVYALKYIECHFMGLSLDMLDDVNIKDARLRIAVDLWKAAFDPVFIDRMTKYKPPKINSEIIDINLSVKLLKLNLIDNILEGPLSESITRSKTLLELDNMLEPNCI | failed
16 | MKPALRRGLVWIGCTASSWGGLVLPSAWSPAAIAQTRAPTNQTGMQLQINGRAIAGQWVVEPASQGSFIWIEEVALRNGLGLELLPGLSTTRQAIRWFSDGRVAEGVEQVPARRQNGRRFLEVSSLARRSGWSLAVLADQLVIQLPAATLRNLRDGQQGANRRLVLDFDRPTPWEWDAIGQQLRFDGSVPAQLVPSLQRYGIQAEQQGDRTSLRLPAGLGVRVSSLGSPDRIFIDLPTTTGLLSPPAGLGSNPAPLTPAPPDLAGTQLQQRQVTVDGATFPVFVIQLDLRQPNVRLAPIWAGNGSLEGTQVLQAVARDRGAAIAINAGFFNRNNRLPLGAIRRDNIWYSGPILNRGAMAWNDQGEVLIDRLGLQETLQLSSGTRIPLVALNSGYVRAGAARYTEAWGNSYQTILDNEVVVTVQGDRVVSQSQADKAGSNRFTIPRNGYLIVLRSANSLRTSLVNGTTIQVLQQAQPSQFDRFPHALGGGPLLVKSGRVVVNPQAEGFSRAFEIEAAPRSAIGLMPDGRLVLVAAHEQNQGQGPTLPQMAAIMQQLGVVDALNFDGGSSTSLIVNGQLVNRARGSAARVHNGLGVFLGPTTPASLR | failed
17 | MSVTVRVPAKVNVQLAVGAARPDGFHDLANVFLAVSLYDEVTATPAADGLRVTCEGPDAGQVPLDRTNLAARAAEALAARYGRAPDVHLHIAKDIPVAGGMAGGSADGAGALLACDALWGTGASREELLEICAGLGSDVPFSLVGGAALGTGRGERLAELE | failed
18 | MIELLFPGWLAGILLAIAAGPLGSFVVWRRMSYFGDTLAHASLLGVAFGLLLNINLFSAVIAVTLILALGLVWLERRPYLAVDTLLGIMAHSALSLGLVVVSLMNNVRVDLMAYLFGDLLSVTTEDLWVIGAGVIIVVAVMRWQWRALLSMTISPELAHVDGVKIQRTKLLLMLTTALTIGIAMKFVGALIITSLLIIPAASARRFARTPEQMAIIAVMIGMIAVTGGLAFSAGYNTPAGPSVVLCASLLFIVSLLKPQPA | failed
